US20250339531A1, “DUX4 POLYPEPTIDES AND NUCLEIC ACIDS FOR TREATING INFLAMMATORY AND AUTOIMMUNE CONDITIONS” (Fred Hutchinson Cancer Center, priority 2021, published 2025)

Test system: proteins that co-immunoprecipitated with DUX4-CTD constructs expressed in MB135 myoblasts
Assay: LC-MS of proteins co-immunoprecipitated with DUX4-CTD (Table 1) and western validation
Format: binding, human
Parameters: key to 4. mL1dL2 + Dox + IFNG / 4. + IFNG mix / 4. longCTD + Dox + IFNG / 3. + IFNg + Dox longCTD / 3. + Dox longCTD / 3. + IFNG longCTD: peptide-spectrum matches (PSMs) per protein
Details: kind of count not given; for 4. + IFNG mix: LC-MS value per protein co-immunoprecipitated from MB135 myoblasts, + IFNG mix sample (no Dox); for 4. mL1dL2 + Dox + IFNG: LC-MS value per protein co-immunoprecipitated with DUX4-CTD construct mL1dL2 in MB135 myoblasts
Summary of the method: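 Two independent experiments compared uninduced, doxycycline and doxycycline+IFNG MB135iDUX4-CTD (plus MB135iDUX4mL1dL2) myoblasts. Anti-FLAG pulldowns (3 h, 4 °C) were eluted in LDS buffer for western validation or with FLAG peptide for trypsin digestion and Orbitrap LC-MS; hits needed ≥2 PSMs in both experiments, ranked by total PSMs.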

B1: PLOD2 (protein)
chain: ADSEKPSSIPTDKLLVITVATKESDGFHRFMQSAKYFNYTVKVLGQGEEWRGGDGINSIGGGQKVRLMKEVMEHYADQDDLVVMFTECFDVIFAGGPEEVLKKFQKANHKVVFAADGILWPDKRLADKYPVVHIGKRYLNSGGFIGYAPYVNRIVQQWNLQDNDDDQLFYTKVYIDPLKREAINITLDHKCKIFQTLNGAVDEVVLKFENGKARAKNTFYETLPVAINGNGPTKILLNYFGNYVPNSWTQDNGCTLCEFDTVDLSAVDVHPNVSIGVFIEQPTPFLPRFLDILLTLDYPKEALKLFIHNKEVYHEKDIKVFFDKAKHEIKTIKIVGPEENLSQAEARNMGMDFCRQDEKCDYYFSVDADVVLTNPRTLKILIEQNRKIIAPLVTRHGKLWSNFWGALSPDGYYARSEDYVDIVQGNRVGVWNVPYMANVYLIKGKTLRSEMNERNYFVRDKLDPDMALCRNAREMGVFMYISNRHEFGRLLSTANYNTSHYNNDLWQIFENPVDWKEKYINRDYSKIFTENIVEQPCPDVFWFPIFSEKACDELVEEMEHYGKWSGGKHHDSRISGGYENVPTDDIHMKQVDLENVWLHFIREFIAPVTLKVFAGYYTKGFALLNFVVKYSPERQRSLRPHHDASTFTINIALNNVGEDFQGGGCKFLRYNCSIESPRKGWSFMHPGRLTHLHEGLPVKNGTRYIAVSFIDP
4. + IFNG mix: 7
4. mL1dL2 + Dox + IFNG: 8

B2: JSRP1 (protein)
chain: MSMTTRAWEELDGGLGSCQALEDHSALAETQEDRASATPRLADSGSVPHDSQVAEGPSVDTRPKKMEKEPAARGTPGTGKERLKAGASPRSVPARKKAQTAPPLQPPPPPPALSEELPWGDLSLNKCLVLASLVALLGSAFQLCRDAVPGEAALQARVPEPWVPPSSAPREPSSPLPKFEAQAPPSAPPAPRAEAEVRPKIPGSREAAENDEEEPGEATGEAVREDRVTLADRGPKERPRREGKPRKEKPRKEERPKKERPRKEERPRAAREPREALPQRWESREGGHRPWARDSRDAEPRKKQAWVSPRRPDEEQRPGSRQKLRAGKGRD
4. mL1dL2 + Dox + IFNG: 1

B3: RBBP7 (protein)
chain: ASKEMFEDTVEERVINEEYKIWKKNTPFLYDLVMTHALQWPSLTVQWLPEVTKPEGKDYALHWLVLGTHTSDEQNHLVVARVHIPNDDAQFDASHCDSDKGEFGGFGSVTGKIECEIKINHEGEVNRARYMPQNPHIIATKTPSSDVLVFDYTKHPAKPDPSGECNPDLRLRGHQKEGYGLSWNSNLSGHLLSASDDHTVCLWDINAGPKEGKIVDAKAIFTGHSAVVEDVAWHLLHESLFGSVADDQKLMIWDTRSNTTSKPSHLVDAHTAEVNCLSFNPYSEFILATGSADKTVALWDLRNLKLKLHTFESHKDEIFQVHWSPHNETILASSGTDRRLNVWDLSKIGEEQSAEDAEDGPPELLFIHGGHTAKISDFSWNPNEPWVICSVSEDNIMQIWQMAENIYNDEESDVTTSELEGQGS
4. mL1dL2 + Dox + IFNG: 16

B4: NCEH1 (protein)
chain: MRSSCVLLTALVALAAYYVYIPLPGSVSDPWKLMLLDATFRGAQQVSNLIHYLGLSHHLLALNFIIVSFGKKSAWSSAQVKVTDTDFDGVEVRVFEGPPKPEEPLKRSVVYIHGGGWALASAKIRYYDELCTAMAEELNAVIVSIEYRLVPKVYFPEQIHDVVRATKYFLKPEVLQKYMVDPGRICISGDSAGGNLAAALGQQFTQDASLKNKLKLQALIYPVLQALDFNTPSYQQNVNTPILPRYVMVKYWVDYFKGNYDFVQAMIVNNHTSLDVEEAAAVRARLNWTSLLPASFTKNYKPVVQTTGNARIVQELPQLLDARSAPLIADQAVLQLLPKTYILTCEHDVLRDDGIMYAKRLESAGVEVTLDHFEDGFHGCMIFTSWPTNFSVGIRTRNSYIKWLDQNL
4. mL1dL2 + Dox + IFNG: 1

B5: AHCYL1 (protein)
chain: SMPDAMPLPGVGEELKQAKEIEDAEKYSFMATVTKAPKKQIQFADDMQEFTKFPTKTGRRSLSRSISQSSTDSYSSAASYTDSSDDEVSPREKQQTNSKGSSNFCVKNIKQAEFGRREIEIAEQDMSALISLRKRAQGEKPLAGAKIVGCTHITAQTAVLIETLCALGAQCRWSACNIYSTQNEVAAALAEAGVAVFAWKGESEDDFWWCIDRCVNMDGWQANMILDDGGDLTHWVYKKYPNVFKKIRGIVEESVTGVHRLYQLSKAGKLCVPAMNVNDSVTKQKFDNLYCCRESILDGLKRTTDVMFGGKQVVVCGYGEVGKGCCAALKALGAIVYITEIDPICALQACMDGFRVVKLNEVIRQVDVVITCTGNKNVVTREHLDRMKNSCIVCNMGHSNTEIDVTSLRTPELTWERVRSQVDHVIWPDGKRVVLLAEGRLLNLSCSTVPTFVLSITATTQALALIELYNAPEGRYKQDVYLLPKKMDEYVASLHLPSFDAHLTELTDDQAKYLGLNKNGPFKPNYYRY
4. mL1dL2 + Dox + IFNG: 1

B6: IGKV2-40 (protein, UniProt A0A087WW87 20-121, looked up)
Immunoglobulin kappa variable …: EDIVMTQTPLSLPVTPGEPASISCRSSQSLLDSDDGNTYLDWYLQKPGQSPQLLIYTLSYRASGVPDRFSGSGSGTDFTLKISRVEAEDVGVYYCMQRIEFP
4. + IFNG mix: 5
4. mL1dL2 + Dox + IFNG: 1

B7: AP2M1 (protein)
chain: MIGGLFIYNHKGEVLISRVYRDDIGSRQAADSAVFSSSGPFPGEWLEANRRNAVDAFRVNVIHARQQVRSPVTNIARTSFFHVKRSNIWLAAVTKQNVNAAMVFEFLYKMCDVMAAYFGKISEENIKNNFVLIYELLDEILDFGYPQNSETGALKTFITQQGIKSQHQTKEEQSQITSQVTGQIGWRREGIKYRRNELFLDVLESVNLLMSPQGQVLSAHVSGRVVMKSYLSGMPECKFGMNDKIVIEKQGKGTADETSKSGKQSIAIDDCTFHQCVRLSKFDSERSISFIPPDGEFELMRYRTTKDIILPFRVIPLVREVGRTKLEVKVVIKSNFKPSLLAQKIEVRIPTPLNTSGVQVICMKGKAKYKASENAIVWKIKRMAGMKESQISAEIELLPTNDKKKWARPPISMNFEVPFAPSGLKVRYLKVFEPKLNYSDHDVIKWVRYIGRSGIYETRC
4. mL1dL2 + Dox + IFNG: 1

B8: GNAI2 (protein)
chain: GCTVSAEDKAAAERSKMIDKNLREDGEKAAREVKLLLLGAGESGKSTIVKQMKIIHEDGYSEEECRQYRAVVYSNTIQSIMAIVKAMGNLQIDFADPSRADDARQLFALSCTAEEQGVLPDDLSGVIRRLWADHGVQACFGRSREYQLNDSAAYYLNDLERIAQSDYIPTQQDVLRTRVKTTGIVETHFTFKDLHFKMFDVGGQRSERKKWIHCFEGVTAIIFCVALSAYDLVLAEDEEMNRMHESMKLFDSICNNKWFTDTSIILFLNKKDLFEEKITHSPLTICFPEYTGANKYDEAASYIQSKFEDLNKRKDTKEIYTHFTCATDTKNVQFVFDAVTDVIIKNNLKDCGLF
4. + IFNG mix: 7
4. mL1dL2 + Dox + IFNG: 10

B9: ATP5F1A (protein)
chain: QKTGTAEMSSILEERILGADTSVDLEETGRVLSIGDGIARVHGLRNVQAEEMVEFSSGLKGMSLNLEPDNVGVVVFGNDKLIKEGDIVKRTGAIVDVPVGEELLGRVVDALGNAIDGKGPIGSKTRRRVGLKAPGIIPRISVREPMQTGIKAVDSLVPIGRGQRELIIGDRQTGKTSIAIDTIINQKRFNDGSDEKKKLYCIYVAIGQKRSTVAQLVKRLTDADAMKYTIVVSATASDAAPLQYLAPYSGCSMGEYFRDNGKHALIIYDDLSKQAVAYRQMSLLLRRPPGREAYPGDVFYLHSRLLERAAKMNDAFGGGSLTALPVIETQAGDVSAYIPTNVISITDGQIFLETELFYKGIRPAINVGLSVSRVGSAAQTRAMKQVAGTMKLELAQYREVAAFAQFGSDLDAATQQLLSRGVRLTELLKQGQYSPMAIEEQVAVIYAGVRGYLDKLEPSKITKFENAFLSHVVSQHQALLGTIRADGKISEQSDAKLKEIVTNFLAGFEA
4. + IFNG mix: 6
4. mL1dL2 + Dox + IFNG: 4
